For series [1], the target named is human type I5E receptor protein (human) (UniProt Q8NFJ6). The experiment in a line: cell-based or functional assay. Particulars: scale: times lower level than human type Bv8 peptide.
Series [2] concerns guinea pig ileum. The experiment in a line: Experiment on contraction using specimen removed from guinea pig ileum. The following applies: for EC50: guinea pig ileum specimen, contraction induced by 1 μM acetylcholine taken as 100%, accumulative administration, read-out: EC50 of contraction response calculated from the dose-response curve. As to the method: Guinea pigs (std: Hartley, 7-8 weeks old, male, weighing about 450 g) weres bled to death by cutting the carotid artery and laparotomized to remove the ileum. The ileum was placed on a glass Petri dish charged with Tyrode solution (composition: 138 mM NaCl, 2.7 mM KCl, 1.8 mM CaCl2, 0.5 mM MgCl2, 1.1 mM NaH2PO4, 11.9 mM NaHCO3 and 5.6 mM glucose), which was bubbled with 95% O2-5% CO2 gas. After connective tissues or fat pieces adhered to the ileum were removed with scissors for surgery and tweezers, the ileum was cut into a size of about 1.5 cm long, which was used as specimen. The specimen was suspended in an organ bath (20 ml) filled with the Tyrode solution maintained at 37° C. and a load of 0.5 g was applied over 30 minutes or longer to stabilize the specimen. Contraction response of the ileum specimen was measured using AMPLIFIER CASE 7747 of NEC Sanei. After determination of the maximum contraction by administration of 1 μM acetylcholine, purified human type Bv8 peptide obtained by the method of REFERENCE EXAMPLE 1 with a modification or snake venom MIT1 was accumulatively administered to assay the contraction response. For dilution of human type Bv8 and MIT1, physiological saline containing 0.05% bovine serum albumin was employed.
The contraction response induced by human type Bv8 and MIT1 was shown by percentage, taking the contraction induced by 1 μM acetylcholine as 100%.

The subject of series [3] is ileum, distal colon, proximal colon. Particulars: cited from earlier work.
Series [4] addresses T1, I5E receptor (Homo sapiens, UniProt Q8NFJ6).
T1 construct: expressed in transfected cells; host or cells: CHO/dhfr- cells, clone No. 4 (I5E-4 cells), vector pAKKO1.11
The experiment in a line: Assay for the I5E receptor activating activity (intracellular Ca ion level increasing activity using FLIPR). Type of series: cell-based. Particulars: I5E receptor expression CHO cells. An excerpt:
Human I5E receptor cDNA (SEQ ID NO: 6) was cloned by PCR publicly known and incorporated into pAKKO1.11 expression vector. The expression vector was transfected to CHO/dhfr^− cells (American Type Culture Collection) by the method described in (2-1). About 20 colonies of the transfected CHO cells, which grew in 8 to 10 days after the initiation of culture, were selected. The selected cells were inoculated on a 96-well plate in 3×10^4 cells/well, and the reactivity on snake venom MIT1 (SEQ ID NO: 21) was examined by the test method described in (2-3) described hereinafter. No. 4 clone of the 15E-expressing CHO cells showing a good reactivity was selected (hereinafter abbreviated as 15E-4 cells).
The ZAQC-B1 obtained in (2-1) above and the 15E-4 cells obtained in (2-2) above were suspended in a medium (10% d FBS-DMEM), respectively, in 15×10^4 cells/ml and an aliquot of 200 μl was inoculated on a 96-well plate for FLIPR (Black plate clear bottom, Coster, Inc.) using a dispenser (3.0×10^4 cells/200 μl/well). After culturing overnight in a 5% CO2 incubator at 37° C., it was provided for use (hereinafter which was made a cell plate). […] By assaying a change in fluorescence intensity with passage of time, the intracellular Ca ion level increasing activity was measured. […]

Series [5] deals with PI-3 kinase. Particulars: cited from earlier work.
Series [6] relates to MAP kinase. Particulars: cited from earlier work.
Series [7] concerns the target T2, ZAQ receptor (Homo sapiens, UniProt Q8TCW9).
T2 construct: expressed in transfected cells; host or cells: CHO/dhfr- cells, clone ZAQC-B1 (plasmid pAK-ZAQC)
The experiment in a line: Assay for the ZAQ receptor activating activity (intracellular Ca ion level increasing activity using FLIPR). It counts as cell-based. On the procedure:
The ZAQC-B1 obtained in (2-1) above and the 15E-4 cells obtained in (2-2) above were suspended in a medium (10% d FBS-DMEM), respectively, in 15×10^4 cells/ml and an aliquot of 200 μl was inoculated on a 96-well plate for FLIPR (Black plate clear bottom, Coster, Inc.) using a dispenser (3.0×10^4 cells/200 μl/well). After culturing overnight in a 5% CO2 incubator at 37° C., it was provided for use (hereinafter which was made a cell plate). Twenty milliliters of H/HBSS (9.8 g of Nissui Hanks 2 (Nissui Seiyaku Co., Ltd.), 0.35 g of sodium hydrogencarbonate and 4.77 g of HEPES; the pH was adjusted to 7.4 with 6 M sodium hydroxide solution followed by filter sterilization), 200 μl of 250 mM Probenecid and 200 μl of fetal bovine serum (FBS) were mixed. Also, 2 vials (50 μg) of Fluo 3-AM (Dojin Kagaku Kenkyusho) were dissolved in 40 μl of dimethylsulfoxide and 40 μl of 20% Pluronic acid (Molecular Probes Co., Ltd.). The solution was added to H/HBSS-Probenecid-FBS described above. After thoroughly mixing them, an aliquot of 100 μl was added to the medium-removed cell plate using an 8-channel pipette, followed by incubation in a 5% CO2 incubator at 37° C. for an hour (dye loading). […] By assaying a change in fluorescence intensity with passage of time, the intracellular Ca ion level increasing activity was measured. […]

As a reminder, the EC50 is the concentration that produces a half-maximal response.

T1 sequence (Q8NFJ6 whole entry): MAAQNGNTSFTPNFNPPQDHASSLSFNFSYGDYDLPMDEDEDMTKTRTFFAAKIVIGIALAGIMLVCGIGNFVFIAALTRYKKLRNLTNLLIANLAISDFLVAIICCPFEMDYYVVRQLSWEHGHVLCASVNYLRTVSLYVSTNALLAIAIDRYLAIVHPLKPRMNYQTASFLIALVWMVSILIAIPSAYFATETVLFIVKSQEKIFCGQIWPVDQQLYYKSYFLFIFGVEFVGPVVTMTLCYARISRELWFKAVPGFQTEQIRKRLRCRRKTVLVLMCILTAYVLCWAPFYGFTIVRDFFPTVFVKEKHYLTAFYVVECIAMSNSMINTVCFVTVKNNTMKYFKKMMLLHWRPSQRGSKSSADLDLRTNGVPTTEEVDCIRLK
T2 sequence (Q8TCW9 whole entry): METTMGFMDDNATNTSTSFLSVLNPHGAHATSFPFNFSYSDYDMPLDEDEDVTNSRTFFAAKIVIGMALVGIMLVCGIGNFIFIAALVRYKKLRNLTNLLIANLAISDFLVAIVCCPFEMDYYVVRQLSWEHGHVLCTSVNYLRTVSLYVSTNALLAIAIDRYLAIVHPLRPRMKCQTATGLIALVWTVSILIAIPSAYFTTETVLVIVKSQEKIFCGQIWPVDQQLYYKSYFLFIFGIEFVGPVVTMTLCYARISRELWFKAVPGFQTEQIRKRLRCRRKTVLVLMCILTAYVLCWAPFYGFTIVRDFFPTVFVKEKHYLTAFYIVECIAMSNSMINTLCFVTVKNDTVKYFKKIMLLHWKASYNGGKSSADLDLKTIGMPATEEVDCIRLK
human type I5E receptor protein (human), sequence (Q8NFJ6 whole entry): as the sequence (Q8NFJ6 whole entry) above

With “snake venom Mamba Intestinal Toxin 1 (from UniProt P25687 1-80) (ligand)”, the I5E receptor activating activity (intracellular calcium level, FLIPR) in series [1] was 10.

B1: MIT1 (protein)
chain: AVITGACERDLQCGKGTCCAVSLWIKSVRVCTPVGTSGEDCHPASHKIPFSGQRMHHTCPCAPNLACVQTSPKKFKCLSK
B1: the EC50 in series [2] was 0.4 nM. Also, in series [3] (compared with potassium chloride), the degree of contraction/relaxation result is given as “as potent as comparable to 40 mM potassium chloride”. Moreover, the “contraction or relaxation of intestinal tract” value in series [3] (ileum, distal colon, proximal colon) is on record as “induced contraction in the ileum or distal colon, or relaxation in the proximal colon”. Also, the “level from which I5E receptor activating activity is exhibited, lower than that of human type Bv8 peptide” value in series [4] (relative to human type Bv8 peptide) is given as “about 10 times”.

B2: human type Bv8: Human type Bv8 mature peptide (81 amino acid residues, SEQ ID NO: 19) produced in Escherichia coli, … EXAMPLE 1 (protein)
chain: AVITGACDKDSQCGGGMCCAVSIWVKSIRICTPMGKLGDSCHPLTRKVPFFGRRMHHTCPCLPGLACLRTSFNRFICLAQ
Consider B2, for which, in series [5], the PI-3 kinase activation result is given as “activates”. Moreover, the MAP kinase activation entry in series [6] is on record as “activates”. Besides, the “intestinal tract contractile activity” value in series [2] (as described in EXAMPLES) is “has an intestinal tract contractile activity”. Moreover, the EC50 in series [2] was 0.57 nM. The “intracellular Ca ion level increasing activity using FLIPR, compared with CHO cell-derived recombinant preparation” value in series [7] (method of EXAMPLE 2 (2-3), receptor cell line not specified) was “equivalent to that of the CHO cell-derived recombinant preparation”.

B3: human type Bv8 peptide: Human type Bv8 purified from CHO cell culture supernatant (EXAMPLE 3); C-terminal Lys-deficient mature peptide, SEQ ID NO: 22 (protein)
chain: B2 chain
modifications: Human
Turning to B3, in series [4] (FLIPR, FIG. 10), the “I5E receptor activating activity (intracellular calcium level)” value was “induced the intracellular calcium level concentration-dependently”. In series [7] (ZAQ receptor expression CHO cells, FLIPR, FIG. 9), the “ZAQ receptor activating activity (intracellular calcium level)” value is “induced the intracellular calcium level concentration-dependently”.

Source of the values: patent publication US20040048314A1, “Novel physiologically active peptide and use thereof” (priority 2001, published 2004).
